Assay results reported in article PMC9965349 (Viruses, 2023).
Read-outs that look alike come from different tables or passages of the source. Residues, ends and D or L forms follow the SMILES beside them.

T1: porcine epidemic diarrhea virus S protein (PEDV-S1) (porcine epidemic diarrhea virus)
T1 chain: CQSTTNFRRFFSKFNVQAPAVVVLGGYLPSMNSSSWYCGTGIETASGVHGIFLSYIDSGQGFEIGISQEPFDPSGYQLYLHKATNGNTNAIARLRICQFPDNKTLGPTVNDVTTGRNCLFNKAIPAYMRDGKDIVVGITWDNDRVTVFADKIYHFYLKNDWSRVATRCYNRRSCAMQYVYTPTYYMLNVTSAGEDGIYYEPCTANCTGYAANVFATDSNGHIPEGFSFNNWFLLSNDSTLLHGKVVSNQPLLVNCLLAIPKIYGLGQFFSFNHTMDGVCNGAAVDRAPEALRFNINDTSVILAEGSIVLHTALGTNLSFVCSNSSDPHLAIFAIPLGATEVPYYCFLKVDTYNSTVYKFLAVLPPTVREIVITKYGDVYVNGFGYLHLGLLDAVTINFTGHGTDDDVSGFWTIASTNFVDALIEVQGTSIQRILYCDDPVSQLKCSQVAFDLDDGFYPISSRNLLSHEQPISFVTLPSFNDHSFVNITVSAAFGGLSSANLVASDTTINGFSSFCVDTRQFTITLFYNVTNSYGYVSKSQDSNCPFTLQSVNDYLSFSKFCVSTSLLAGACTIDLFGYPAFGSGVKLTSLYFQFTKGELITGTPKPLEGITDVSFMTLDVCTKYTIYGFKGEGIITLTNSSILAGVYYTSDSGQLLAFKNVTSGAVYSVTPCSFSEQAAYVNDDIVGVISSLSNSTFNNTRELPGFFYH


Key:
PEDV S1 protein = PEDV S1 protein (Porcine epidemic diarrhea virus, UniProt Q91AV1); test: SPR kinetic measurement (Biacore X100, CM5 chip); type: binding
Vero cells = test: Cytotoxicity assay (CCK-8); type: cell-based, African green monkey
[1] = molecular target: T1, porcine epidemic diarrhea virus S …; test: ELISA; conditions: both partners purified
[2] = molecular target: T1, porcine epidemic diarrhea virus S …; test: SPR; conditions: both partners purified
[3] = SPR, 1:1 binding fit, peptide 0.78125-25 μM, HBS-EP pH 7.4, 30 μL/min, 120 s association, 120 s dissociation

| Molecule | Kd (PEDV S1 protein) [nM] | P/N value [1] | Kd [2] [nM] | koff [2] [s⁻¹] | kon [2] [M⁻¹ s⁻¹] | also measured |
| --- | --- | --- | --- | --- | --- | --- |
| C[C@H](NC(=O)[C@H](CCC(=O)O)NC(=O)[C@H](CCCCN)NC(=O)[C@H](Cc1c[nH]c2ccccc12)NC(=O)[C@@H](N)Cc1ccccc1)C(=O)N[C@@H](CCCCN)C(=O)O [compound 110616] (H-FWKEAK-OH) | 772 | – | – | – | – | – |
| N=C(N)NCCC[C@H](NC(=O)[C@H](CCCCN)NC(=O)[C@H](CO)NC(=O)[C@H](CCCCN)NC(=O)[C@H](Cc1c[nH]c2ccccc12)NC(=O)[C@@H](N)Cc1ccccc1)C(=O)O [compound 110766] | 216 | – | – | – | – | Cell viability (CCK-8) (Vero cells; 0.78125-400 µM, 24 h at 37 °C, normalized to control without peptide): over 90%; Cytotoxicity (in words) (Vero cells; CCK-8): not toxic to vero cells |
| N=C(N)NCCC[C@H](NC(=O)[C@H](CC(N)=O)NC(=O)[C@H](Cc1ccccc1)NC(=O)[C@H](Cc1c[nH]cn1)NC(=O)[C@@H](N)Cc1c[nH]c2ccccc12)C(=O)N1CCC[C@H]1C(=O)O [compound 115042] (H-WHFNRP-OH) | 6520 | – | – | – | – | – |
| FWKQNKFLFWKQNKCL [compound 110490] | – | – | – | – | – | Ka (PEDV S1 protein; [3]): 5743 M⁻¹ s⁻¹; Kd (PEDV S1 protein; [3]): 0.03522 s⁻¹ |
| WHFNRP [peptide 115042] | – | > 67.9 | 6520 | 0.0225 | 3450 | – |
| FWKEAK [peptide 110616] | – | > 67.9 | 772 | 0.0236 | 30500 | – |
| FWKQNKFLFWKQNKCL [peptide 110490] | – | > 67.9 | 1500 | 0.0352 | 5740 | – |
| FWKSKR [peptide 110766] | – | – | 216 | – | – | – |
